Laboratory results as given in the supplement of paper PMC9112550, “Optimization of the antimicrobial peptide Bac7 by deep mutational scanning” (BMC Biology, 2022).

System: Escherichia coli TOP10
Test: shrunken log2 fold change of peptide-encoding DNA abundance (4.5 h post-induction vs induction); higher = less antimicrobial activity (less host growth inhibition)
Details: time post-induction: 4.5 h; library: site-saturation at positions 5, 18, 19, 20
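Further: peptides expressed intracellularly from a pBAD plasmid library in pooled LB shake-flask culture, induced with 0.3% L-arabinose, DNA abundance read by NGS, three biological replicates, DESeq2 with apeglm shrinkage.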

| Sequence | shrunken log2 fold change |
| --- | --- |
| RRIRPRPPRLPRPRPRPQVNPRP | -0.279 |
| RRIRPRPPRLPRPRPRPNSSPRP | -0.396 |
| RRIRSRPPRLPRPRPRPYPCPRP | 0.0185 |
| RRIRPRPPRLPRPRPRPEGFPRP | 0.86 |
| RRIRLRPPRLPRPRPRPEVKPRP | -0.108 |
| RRIRPRPPRLPRPRPRPHSRPRP | -0.198 |
| RRIRCRPPRLPRPRPRPMRTPRP | 0.962 |
| RRIRMRPPRLPRPRPRPAKFPRP | 0.0548 |
| RRIRLRPPRLPRPRPRPGLRPRP | 0.234 |
| RRIRNRPPRLPRPRPRPHFQPRP | 0.0313 |
| RRIRKRPPRLPRPRPRPILMPRP | 0.0297 |
| RRIRMRPPRLPRPRPRPCMFPRP | -0.038 |
| RRIRHRPPRLPRPRPRPTRYPRP | -0.453 |
| RRIRNRPPRLPRPRPRPWCPPRP | -0.752 |
| RRIRIRPPRLPRPRPRPFHIPRP | -0.127 |
| RRIRHRPPRLPRPRPRPKEYPRP | -0.0937 |
| RRIRTRPPRLPRPRPRPQNIPRP | -0.587 |
| RRIRHRPPRLPRPRPRPVGPPRP | 0.195 |
| RRIRKRPPRLPRPRPRPWTHPRP | 0.0375 |
| RRIRERPPRLPRPRPRPSEYPRP | -0.27 |
| RRIRMRPPRLPRPRPRPYYWPRP | -0.123 |
| RRIRVRPPRLPRPRPRPQLYPRP | -0.137 |
| RRIRCRPPRLPRPRPRPQHLPRP | -0.0397 |
| RRIRVRPPRLPRPRPRPREEPRP | 0.493 |
| RRIRWRPPRLPRPRPRPHYQPRP | -0.00398 |

| Sequence | shrunken log2 fold change |
| --- | --- |
| RRIRIRPPRLPRPRPRPEWSPRP | -0.26 |
| RRIRGRPPRLPRPRPRPFKAPRP | 0.2 |
| RRIRWRPPRLPRPRPRPRMEPRP | 0.439 |
| RRIRQRPPRLPRPRPRPSHRPRP | -0.0821 |
| RRIRWRPPRLPRPRPRPTENPRP | 0.0907 |
| RRIRFRPPRLPRPRPRPISDPRP | 0.0114 |
| RRIRTRPPRLPRPRPRPRTCPRP | 1.21 |
| RRIRERPPRLPRPRPRPSYEPRP | -0.499 |
| RRIRERPPRLPRPRPRPELVPRP | 0.0791 |
| RRIRFRPPRLPRPRPRPYYIPRP | -0.794 |
| RRIRQRPPRLPRPRPRPVYKPRP | -0.612 |
| RRIRERPPRLPRPRPRPNACPRP | -0.00102 |
| RRIRFRPPRLPRPRPRPLNLPRP | -0.542 |
| RRIRNRPPRLPRPRPRPCSAPRP | -0.292 |
| RRIRVRPPRLPRPRPRPQPSPRP | 0.00981 |
| RRIRLRPPRLPRPRPRPFIGPRP | -0.305 |
| RRIRARPPRLPRPRPRPIVTPRP | 0.155 |
| RRIRVRPPRLPRPRPRPIDVPRP | -0.0749 |
| RRIRYRPPRLPRPRPRPSWMPRP | -0.534 |
| RRIRIRPPRLPRPRPRPYKDPRP | -0.317 |
| RRIRKRPPRLPRPRPRPRLSPRP | 0.0586 |
| RRIRDRPPRLPRPRPRPTAKPRP | -0.00144 |
| RRIRWRPPRLPRPRPRPDQEPRP | -0.00154 |
| RRIRERPPRLPRPRPRPMLNPRP | -0.106 |
| RRIRMRPPRLPRPRPRPYLRPRP | 0.0522 |

| Sequence | shrunken log2 fold change |
| --- | --- |
| RRIRSRPPRLPRPRPRPSHAPRP | -0.449 |
| RRIRNRPPRLPRPRPRPDMLPRP | -0.116 |
| RRIRNRPPRLPRPRPRPKICPRP | -0.262 |
| RRIRNRPPRLPRPRPRPVPIPRP | -0.0984 |
| RRIRMRPPRLPRPRPRPIWYPRP | -0.158 |
| RRIRVRPPRLPRPRPRPQCCPRP | -0.185 |
| RRIRWRPPRLPRPRPRPGEYPRP | 0.147 |
| RRIRPRPPRLPRPRPRPDPTPRP | 0.166 |
| RRIRYRPPRLPRPRPRPYMSPRP | -0.00192 |
| RRIRGRPPRLPRPRPRPIRFPRP | 0.0151 |
| RRIRPRPPRLPRPRPRPVKVPRP | 0.161 |
| RRIRARPPRLPRPRPRPFDWPRP | 0.608 |
| RRIRNRPPRLPRPRPRPYGCPRP | -0.146 |
| RRIRKRPPRLPRPRPRPQLLPRP | 0.261 |
| RRIRNRPPRLPRPRPRPVWGPRP | 0.283 |
| RRIRDRPPRLPRPRPRPHFYPRP | -0.321 |
| RRIRSRPPRLPRPRPRPKNYPRP | -0.547 |
| RRIRCRPPRLPRPRPRPKIFPRP | -0.0936 |
| RRIRSRPPRLPRPRPRPTHFPRP | -0.0655 |
| RRIRMRPPRLPRPRPRPYTQPRP | -0.149 |
| RRIRMRPPRLPRPRPRPEAGPRP | 2.36 |
| RRIRTRPPRLPRPRPRPNFLPRP | 0.998 |
| RRIRNRPPRLPRPRPRPLMDPRP | 0.0545 |
| RRIRIRPPRLPRPRPRPPGKPRP | 0.324 |
| RRIRPRPPRLPRPRPRPNCCPRP | 0.187 |

| Sequence | shrunken log2 fold change |
| --- | --- |
| RRIRRRPPRLPRPRPRPFFVPRP | 0.283 |
| RRIRQRPPRLPRPRPRPERRPRP | 0.0099 |
| RRIRRRPPRLPRPRPRPNYSPRP | -0.0871 |
| RRIRSRPPRLPRPRPRPVMFPRP | -0.118 |
| RRIRHRPPRLPRPRPRPKVQPRP | 0.146 |
| RRIRIRPPRLPRPRPRPTKAPRP | -0.162 |
| RRIRNRPPRLPRPRPRPMHHPRP | -0.653 |
| RRIRSRPPRLPRPRPRPQVYPRP | -0.276 |
| RRIRHRPPRLPRPRPRPSDTPRP | -1.05 |
| RRIRPRPPRLPRPRPRPNEHPRP | -0.263 |
| RRIRLRPPRLPRPRPRPQGAPRP | -0.145 |
| RRIRDRPPRLPRPRPRPSDNPRP | -0.0807 |
| RRIRQRPPRLPRPRPRPHSAPRP | -0.0562 |
| RRIRIRPPRLPRPRPRPYAVPRP | -0.937 |
| RRIRLRPPRLPRPRPRPPWGPRP | 0.203 |
| RRIRRRPPRLPRPRPRPYVDPRP | -0.102 |
| RRIRGRPPRLPRPRPRPCRSPRP | -0.0741 |
| RRIRMRPPRLPRPRPRPHYAPRP | -0.128 |
| RRIRKRPPRLPRPRPRPEYIPRP | -0.367 |
| RRIRRRPPRLPRPRPRPERHPRP | 0.549 |
| RRIRKRPPRLPRPRPRPGNLPRP | 0.0368 |
| RRIRHRPPRLPRPRPRPKRFPRP | 0.0543 |
| RRIRGRPPRLPRPRPRPWARPRP | 0.241 |
| RRIRIRPPRLPRPRPRPSFKPRP | -0.494 |
| RRIRERPPRLPRPRPRPCYDPRP | -1.93 |

| Sequence | shrunken log2 fold change |
| --- | --- |
| RRIRQRPPRLPRPRPRPIDKPRP | 0.0866 |
| RRIRRRPPRLPRPRPRPRKRPRP | 0.859 |
| RRIRSRPPRLPRPRPRPRHCPRP | 0.101 |
| RRIRIRPPRLPRPRPRPGCNPRP | -0.247 |
| RRIRMRPPRLPRPRPRPEQVPRP | 0.493 |
| RRIRNRPPRLPRPRPRPERAPRP | 0.362 |
| RRIRDRPPRLPRPRPRPSAVPRP | 0.291 |
| RRIRQRPPRLPRPRPRPWHCPRP | -0.0682 |
| RRIRNRPPRLPRPRPRPLIEPRP | -0.284 |
| RRIRCRPPRLPRPRPRPKYNPRP | -0.696 |
| RRIRARPPRLPRPRPRPIHTPRP | 0.0197 |
| RRIRGRPPRLPRPRPRPHNWPRP | 0.18 |
| RRIRARPPRLPRPRPRPIMYPRP | -0.161 |
| RRIRYRPPRLPRPRPRPDISPRP | -0.415 |
| RRIRARPPRLPRPRPRPHMWPRP | -0.000358 |
| RRIRTRPPRLPRPRPRPSCMPRP | -0.0847 |
| RRIRHRPPRLPRPRPRPVDTPRP | -0.508 |
| RRIRCRPPRLPRPRPRPSHVPRP | -0.387 |
| RRIRMRPPRLPRPRPRPIMMPRP | -0.00663 |
| RRIRIRPPRLPRPRPRPYCYPRP | -0.0959 |
| RRIRARPPRLPRPRPRPHDWPRP | 0.295 |
| RRIRGRPPRLPRPRPRPMFVPRP | 0.39 |
| RRIRCRPPRLPRPRPRPCHFPRP | -0.273 |
| RRIRNRPPRLPRPRPRPSKCPRP | -0.126 |
| RRIRRRPPRLPRPRPRPTGEPRP | 0.337 |
